The labels stand for the following.
T1: UkCpf1 (in cells) (uncultivated microorganism (metagenome))
T1 chain: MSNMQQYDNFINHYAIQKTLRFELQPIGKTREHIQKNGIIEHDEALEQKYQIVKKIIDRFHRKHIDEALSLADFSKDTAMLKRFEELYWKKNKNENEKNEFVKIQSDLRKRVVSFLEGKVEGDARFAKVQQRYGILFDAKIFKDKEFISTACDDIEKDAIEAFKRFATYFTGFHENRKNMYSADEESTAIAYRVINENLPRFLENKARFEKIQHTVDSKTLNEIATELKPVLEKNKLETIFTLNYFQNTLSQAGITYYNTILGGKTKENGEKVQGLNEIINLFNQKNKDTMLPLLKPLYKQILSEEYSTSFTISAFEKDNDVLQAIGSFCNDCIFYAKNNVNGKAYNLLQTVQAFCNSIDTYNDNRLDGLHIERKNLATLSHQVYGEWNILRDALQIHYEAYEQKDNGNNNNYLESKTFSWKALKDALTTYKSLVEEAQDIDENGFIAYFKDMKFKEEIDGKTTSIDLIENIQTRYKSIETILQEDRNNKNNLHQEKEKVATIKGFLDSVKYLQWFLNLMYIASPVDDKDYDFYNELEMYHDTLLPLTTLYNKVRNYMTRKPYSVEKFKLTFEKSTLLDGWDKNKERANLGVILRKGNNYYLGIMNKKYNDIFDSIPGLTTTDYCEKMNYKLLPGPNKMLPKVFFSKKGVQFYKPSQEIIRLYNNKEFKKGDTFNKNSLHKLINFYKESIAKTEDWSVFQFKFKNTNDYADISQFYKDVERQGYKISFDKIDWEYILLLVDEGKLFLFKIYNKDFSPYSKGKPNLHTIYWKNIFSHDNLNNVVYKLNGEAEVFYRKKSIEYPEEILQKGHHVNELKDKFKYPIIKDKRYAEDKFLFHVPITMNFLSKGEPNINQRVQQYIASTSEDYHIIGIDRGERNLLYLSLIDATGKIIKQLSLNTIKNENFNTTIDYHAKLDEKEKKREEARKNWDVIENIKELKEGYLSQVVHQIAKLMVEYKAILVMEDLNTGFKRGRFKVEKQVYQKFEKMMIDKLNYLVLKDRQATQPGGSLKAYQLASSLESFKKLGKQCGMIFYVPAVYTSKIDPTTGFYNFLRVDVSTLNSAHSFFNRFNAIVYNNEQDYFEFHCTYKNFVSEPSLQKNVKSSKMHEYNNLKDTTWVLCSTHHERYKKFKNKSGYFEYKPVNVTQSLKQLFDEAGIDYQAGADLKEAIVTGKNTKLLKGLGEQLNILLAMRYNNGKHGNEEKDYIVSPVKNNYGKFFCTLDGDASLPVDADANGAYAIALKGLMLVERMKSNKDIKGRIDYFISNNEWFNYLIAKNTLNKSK

B1: gRNA gTGW6-3 (UkCpf1 DR + spacer) ; TGW6-3 target (ssRNA ; dsDNA)
RNA: AUUUCUACUAUUGUAGAUUUGACCUGCCAGGCUAUCCUGAU
DNA 1: TTGACCTGCCAGGCTATCCTGAT
DNA 2: ATCAGGATAGCCTGGCAGGTCAA
B2: gRNA gTGW6-2 (UkCpf1 DR + spacer) ; TGW6-2 target (ssRNA ; dsDNA)
RNA: AUUUCUACUAUUGUAGAUUUUCACCGACAGCAGCAUGAACU
DNA 1: TTTCACCGACAGCAGCATGAACT
DNA 2: AGTTCATGCTGCTGTCGGTGAAA
B3: gRNA gTGW6-5 (UkCpf1 DR + spacer) ; TGW6-5 target (ssRNA ; dsDNA)
RNA: AUUUCUACUAUUGUAGAUCGUGUAGCUGGGGCUGUACGUGU
DNA 1: CGTGTAGCTGGGGCTGTACGTGT
DNA 2: ACACGTACAGCCCCAGCTACACG

This data set addresses T1, UkCpf1 (in cells). The data set can be described thus: cell_activity; rice protoplast; PAM 5'-YYV.
B1: the activity amounted to 0.57 % indel.
With B2, the activity was 0.39 % indel.
On to B3, for which the activity stood at 0.73 % indel.

The values above are taken from US20220186206, “NOVEL Cas ENZYME AND SYSTEM, AND USE THEREOF” (SHANDONG SHUNFENG BIOTECHNOLOGY CO., LTD., published 2022).
